From patent US20210087296A1 (published 2021)

Tests used:
[1] = biological target: T1, MMP-14 catalytic domain mutant F198A (human, UniProt P50281 114-287, limits assumed); test: competitive ELISA, mutant in solution against immobilised wild-type MMP-14
T1 construct: Position as printed

[2] = biological target: T2, MMP-14 catalytic domain mutant Y203A (human, UniProt P50281 114-287, limits assumed); test: as above
T2 construct: Position as printed

[3] = biological target: T3, MMP-14 catalytic domain mutant F204A (human, UniProt P50281 114-287, limits assumed); test: as above
T3 construct: Position as printed

[4] = biological target: T4, MMP-14 catalytic domain mutant T190A (human, UniProt P50281 114-287, limits assumed); test: as above
T4 construct: Position as printed

[5] = biological target: T5, MMP-14 catalytic domain mutant N231A (human, UniProt P50281 114-287, limits assumed); test: as above
T5 construct: Position as printed

[6] = biological target: T6, matrix metalloproteinase-14 catalytic domain (cdMMP-14) (human, UniProt P50281 114-287, limits assumed, biotinylated with EZ-Link Sulfo-NHS-LC-Biotin for ELISA; amine-coupled to CM5 chip for SPR); test: ELISA, purified Fab titrated on immobilised biotin-cdMMP-14, anti-Fab-HRP
T6 construct: also called catalytic domain of MMP-14; wild-type MMP-14

B1: Fab 3A2 (Fab, V domains shown)
VH: EVQLVESGGGLVQPGGSLRLSCAASGFNLSSSSMHWVRQAPGKGLEWVASIYPSYSYTYYADSVKGRFTISADTSKNTAYLQMNSLRAEDTAVYYCARVKLQKDKSHQWIRNLVATPYGRYVMDYWGQGTLVTVSS
VL: DIQMTQSPSSLSASVGDRVTITCRASQSVSSAVAWYQQKPGKAPKLLIYSASSLYSGVPSRFSGSRSGTDFTLTISSLQPEDFATYYCQQYGYPITFGQGTKVEIKR
notes: Synthetic human Fab from E. coli periplasm; also called R3C9; not shown: His tag at C-terminus of heavy chain
B1: binds [1]; binds [2]; binds [3]. B1: binds [4]; binds [5].

B2: Fab R2C14 (Fab, V domains shown)
VH: EVQLVESGGGLVQPGGSLRLSCAASGFNIYSSSIHWVRQAPGKGLEWVASIYSYSGYTYYADSVKGRFTISADTSKNTAYLQMNSLRAEDTAVYYCARVSNRYNRSSASIAGLQLFRPYGMDYWGQGTLVTVSS
VL: DIQMTQSPSSLSASVGDRVTITCRASQSVSSAVAWYQQKPGKAPKLLIYSASSLYSGVPSRFSGSRSGTDFTLTISSLQPEDFATYYCQQSSYSLITFGQGTKVEIKR
notes: Fab
In the case of B2, the EC50 [6] is reported as 1.2 nM.
